Source: patent US20090291081A1 (AbbVie / Abbott, published 2009)

Experiments:
human IL-1α = target: T1, human IL-1α (human, UniProt P01583 113-271); assay: cell-based or functional assay
T1 sequence (looked up): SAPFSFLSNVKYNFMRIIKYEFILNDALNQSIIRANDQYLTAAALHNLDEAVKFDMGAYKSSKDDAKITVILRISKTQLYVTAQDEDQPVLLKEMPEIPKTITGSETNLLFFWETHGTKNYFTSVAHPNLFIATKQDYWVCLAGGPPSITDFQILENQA

human IL-1β [1] = target: human IL-1β (human, UniProt P01584 117-269); assay: cell-based or functional assay
human IL-1β [2] = target: T2, human IL-1β (human, UniProt P01584 117-269); assay: cell-based or functional assay; remark: listed apart in the source
human IL-1β [3] = target: T2, human IL-1β; assay: IC50 column of Table 63; receptor binding assay presumed

Binder | IL-1α IC50 (human IL-1α) [nM] | IL-1β IC50 (human IL-1β [1]) [nM] | ND50 (human IL-1β [2]) [nM] | IC50 (human IL-1β [3]) [nM]
ABT2-108/ABT1-122-505 hu IgG1/K wt (bispecific antibody, V domains shown) VH: EVQLLESGGGLVQPGGSLRLSCAASGFTFAEYTMMWVRQAPGKGLEWVSRIGQDGKNTYYADSVKGRFTISRDNSKNTLYLQMNSLRAEDTAVYYCAKYTGRVGVHHLFDYWGQGTLVTSS VL: DIQMTQSPSSLSASVGDRVTITCRASQPIWTELNWYQQKPGKAPKLLIYGSSSLQSGVPSRFSGSGSGTDFTLTISSLQPEDFATYYCKQFAYFPATFGQGTKVEIKR | 2000 | 20 |  | 
ABT2-108/ABT1-122-508 hu IgG1/K wt (bispecific antibody, V domains shown) VH: EVQLLESGGGLVQPGGSLRLSCAASGFTFAEYTMMWVRQAPGKGLEWVSRIGQDGKNTYYADSVKGRFTISRDNSKNTLYLQMNSLRAEDTAVYYCAKYTGRVGVHHLFDYWGQGTLVTSS VL: DIQMTQSPSSLSASVGDRVTITCRASQPIWTELNWYQQKPGKAPKLLIYGSSSLQRGVPSRFSGSGSGTDFTLTISSLQPEDFATYYCQQFAYFPATFGQGTKVEIKR | 400 | 20 |  | 
ABT2-108-521/ABT1-122-511 hu IgG1/K wt (bispecific antibody, V domains shown) VH: EVQLLESGGGLVQPGGSLRLSCAASGFTFAEYTMMWVRQAPGKGLEWVSRIGQDGKNTYYADSVKGRFTISRDNSKNTLYLQMNSLRAEDTAVYYCAKYTGRILGHHLFDYWGQGTLVTVSS VL: DIQMTQSPSSLSASVGDRVTITCRASQPIWTELNWYQQKPGKAPKLLIYGSSSLQRGVPSRFSGSGSGTDFTLTISSLQPEDFATYYCKQFAYFPATFGQGTKVEIKR | 150 | 0.16 |  | 
ABT2-108-620x/ABT1-122-512 huIgG1/K wt (bispecific antibody, V domains shown) VH: EVQLLESGGGLVQPGGSLRLSCAASGFTFAEESWMWVRQAPGKGLEWVSRIGQDGKNTYYREDVKGRFTISRDNSKNTLYLQMNSLRAEDTAVYYCAKYTGRIMGHHLFDYWGQGTLVTVSS VL: DIQMTQSPSSLSASVGDRVTITCRASQPIWTELNWYQQKPGKAPKLLIYGSAKRQRGVPSRFSGSGSGTDFTLTISSLQPEDFATYYCKQFAYFPATFGQGTKVEIKR | 150 | 0.006 |  | 
ABT2-108/ABT1-122-554 hu IgG1/K wt (bispecific antibody, V domains shown) VH: EVQLLESGGGLVQPGGSLRLSCAASGFTFAEYTMMWVRQAPGKGLEWVSRIGQDGKNTYYADSVKGRFTISRDNSKNTLYLQMNSLRAEDTAVYYCAKYTGRVGVHHLFDYWGQGTLVTSS VL: DIQMTQSPSSLSASVGDRVTITCRASQPIWTELNWYQQKPGKAPKLLIYGSSSLQSGVPSRFSGSGSGTDFTLTISSLQPEDFATYYCQQFAYFPATFGQETKVEIKR | 150 | 9 |  | 
ABT2-108/ABT1-122-555 hu IgG1/K wt (bispecific antibody, V domains shown) VH: EVQLLESGGGLVQPGGSLRLSCAASGFTFAEYTMMWVRQAPGKGLEWVSRIGQDGKNTYYADSVKGRFTISRDNSKNTLYLQMNSLRAEDTAVYYCAKYTGRVGVHHLFDYWGQGTLVTSS VL: DIQMTQSPSSLSASVGDRVTITCRASQPIWTELNWYQQKPGKTPKLLIYGSSSLQSGVPSRFSGSGSGTDFTLTISSLQPEDFATYYCQQFAYFPATFGQGTKVEIKR | 70 | 7 |  | 
ABT2-108-538x/ABT1-122-555 hu IgG1/K wt (bispecific antibody, V domains shown) VH: EVQLLESGGGLVQPGGSLRLSCAASGFTFADEGMMWVRQAPGKGLEWVSRITYSGKNTYYADSVKGRFTISRDNSKNTLYLQMNSLRAEDTAVYYCAKYTGRILGHHLFDYWGQGTLVTVSS VL: DIQMTQSPSSLSASVGDRVTITCRASQPIWTELNWYQQKPGKTPKLLIYGSSSLQSGVPSRFSGSGSGTDFTLTISSLQPEDFATYYCQQFAYFPATFGQGTKVEIKR | 25 | 0.015 |  | 
ABT2-108/ABT1-122-556 hu IgG1/K wt (bispecific antibody, V domains shown) VH: EVQLLESGGGLVQPGGSLRLSCAASGFTFAEYTMMWVRQAPGKGLEWVSRIGQDGKNTYYADSVKGRFTISRDNSKNTLYLQMNSLRAEDTAVYYCAKYTGRVGVHHLFDYWGQGTLVTSS VL: DIQMTQSPSSLSASVGDRVTITCRASQPIWTELNWYQQKPGKAPKLLIYGSSSLQSGVPSRFSGSGSGTDFTLTISSLQPEDFATYHCQQFAYFPATFGQGTKVEIKR | 150 | 15 |  | 
ABT2-108-620x/ABT1-122-750M hu IgG1 wt (bispecific antibody, V domains shown) VH: EVQLLESGGGLVQPGGSLRLSCAASGFTFAEESWMWVRQAPGKGLEWVSRIGQDGKNTYYREDVKGRFTISRDNSKNTLYLQMNSLRAEDTAVYYCAKYTGRIMGHHLFDYWGQGTLVTVSS VL: DIQMTQSPSSLSASVGDRVTITCSASQHIWTEMSWYQQKPGKAPKLLIYGSASRQKGVPSRFSGSGSGTDFTLTISSLQPEDFATYYCKQFAYFPNTFGQGTKVEIKR | 18.5 | 0.00555 |  | 
ABT2-108-620x/ABT1-122-750MT hu IgG1 wt (bispecific antibody, V domains shown) VH: EVQLLESGGGLVQPGGSLRLSCAASGFTFAEESWMWVRQAPGKGLEWVSRIGQDGKNTYYREDVKGRFTISRDNSKNTLYLQMNSLRAEDTAVYYCAKYTGRIMGHHLFDYWGQGTLVTVSS VL: DIQMTQSPSSLSASVGDRVTITCSASQHIWTEMSWYQQKPGKTPKLLIYGSASRQKGVPSRFSGSGSGTDFTLTISSLQPEDFATYYCKQFAYFPNTFGQGTKVEIKR | 10.1 | 0.00482 |  | 
ABT2-108-620x/ABT1-122-750x huIgG1/K wt (bispecific antibody, V domains shown) VH: EVQLLESGGGLVQPGGSLRLSCAASGFTFAEESWMWVRQAPGKGLEWVSRIGQDGKNTYYREDVKGRFTISRDNSKNTLYLQMNSLRAEDTAVYYCAKYTGRIMGHHLFDYWGQGTLVTVSS VL: DIQMTQSPSSLSASVGDRVAITCSASQHIWTEISWYQQKPGKAPKLLIYGSASRQKGVPSRFSGSGSGTDFTLTISSLQPEDFATYYCKQFAYFPNTFGQGTKVEIKR | 17.5 | 0.005 |  | 
ABT2-65/ABT1-141 hu IgG1/K wt (bispecific antibody, V domains shown) VH: EVQLLESGGGLVQPGGSLRLSCAASGFTFEDYQMGWVRQAPGKGLEWVSSISAMGNRTYYADSVKGRFTISRDDSKNTLYLQMNSLRAEDTAVYYCAKNLVRTQSKMWMFDYWGQGTLVTVSS VL: DIQMTQSPSSLSASVGDRVTITCRASQWIQKQLAWYQQKPGKAPKLLIYSSSYLQSGVPRFSGSGSGTDFTLTISSLQPEDFATYYCQQHLRVPFTFGQGTKVEIKR | 7000 | 100 |  | 
ABT2-65-17/ABT1-141 hu IgG1/K wt (bispecific antibody, V domains shown) VH: EVQLLESGGGLVQPGGSLRLSCVASGFTFEDYQMGWVRQAPGKGLEWVSSISAMGNRTYYADSVKGRFTISRDDSKNTLYLQMNSLRAEDTAVYYCAQNLVRLGRSRWMFDYWGQGTLVTVSS VL: DIQMTQSPSSLSASVGDRVTITCRASQWIQKQLAWYQQKPGKAPKLLIYSSSYLQSGVPRFSGSGSGTDFTLTISSLQPEDFATYYCQQHLRVPFTFGQGTKVEIKR | 70 | 0.4 |  | 
ABT2-65-8/ABT1-141 hu IgG1/K wt (bispecific antibody, V domains shown) VH: EVQLLESGGGLVQPGGSLRLSCAASGFTFEDYQMGWVRQAPGKGLEWVSSISAMGNRTYYADSVKGRFTISRDDSKNTLYLQMNSLRAEDTAVYYCAQNLVRMDSRRWMFDYWGQGTLVTVSS VL: DIQMTQSPSSLSASVGDRVTITCRASQWIQKQLAWYQQKPGKAPKLLIYSSSYLQSGVPRFSGSGSGTDFTLTISSLQPEDFATYYCQQHLRVPFTFGQGTKVEIKR | 450 | 0.09 |  | 
ABT2-108-521/ABT1-141-25 hu IgG1/K wt (bispecific antibody, V domains shown) VH: EVQLLESGGGLVQPGGSLRLSCAASGFTFAEYTMMWVRQAPGKGLEWVSRIGQDGKNTYYADSVKGRFTISRDNSKNTLYLQMNSLRAEDTAVYYCAKYTGRILGHHLFDYWGQGTLVTVSS VL: DIQMTQSPSSLSASVGDRVTITCRASQWIQKQLAWYQQKPGKAPKLLIYSSSYLQSGVPSRFSGSGSGTDFTLTISSLQPEDFATYYCQQHLRVPMTFGQGTKVEIKR | 20 | 0.1 |  | 
ABT2-65-17/ABT1-212 hu IgG1/K wt (bispecific antibody, V domains shown) VH: EVQLLESGGGLVQPGGSLRLSCVASGFTFEDYQMGWVRQAPGKGLEWVSSISAMGNRTYYADSVKGRFTISRDDSKNTLYLQMNSLRAEDTAVYYCAQNLVRLGRSRWMFDYWGQGTLVTVSS VL: DIQMTQSPSSLSASVGDRVTITCRASQRINGNLRWYQQKPGKAPKLLIYSVSQLQSGVPSRFSGSGSGTDFTLTISSLQPEDFATYYCQQGYDWPPTFGQGTKVETKR | 100 |  |  | 
ABT2-65-8/ABT1-212 hu IgG1/K wt (bispecific antibody, V domains shown) VH: EVQLLESGGGLVQPGGSLRLSCAASGFTFEDYQMGWVRQAPGKGLEWVSSISAMGNRTYYADSVKGRFTISRDDSKNTLYLQMNSLRAEDTAVYYCAQNLVRMDSRRWMFDYWGQGTLVTVSS VL: DIQMTQSPSSLSASVGDRVTITCRASQRINGNLRWYQQKPGKAPKLLIYSVSQLQSGVPSRFSGSGSGTDFTLTISSLQPEDFATYYCQQGYDWPPTFGQGTKVETKR | 5000 | 3.5 |  | 
ABT2-65-140 (other, VH dAb) VH: EVQLLESGGGLVQPGGSLRLSCAASGFTFEDYQMGWVRQAPGKGLEWVSSISAMGNRTYYADSVKGRFTISRDDSKNTLYLQMNSLRAEDTAVYYCAENLVKISRRHWMFDYWGQGTLVTVSS |  |  | 1 | 2
ABT2-65-154 (other, VH dAb) VH: EVQLLESGGGLVQPGGSLRLSCAASGFTFEDYQMGWVRQAPGKGLEWVSSISAMGNRTHYADSVKGRFTISRDDSKNTLYLQMNSLRAEDTAVYYCAQNLVRIRRTKWMFDYWGQGTLVTVSS |  |  | 1.5 | 3
ABT2-65-166 (other) VH: EVQLLESGGGLVQPGGSLRLSCAASGFTFEDYQMGWVRQAPGKGLEWVSSISAMGGRTYYADSVKGRFTISRDNSKNTLYLQMNSLRAEDTAVYYCAQNLVRLGRSRWMFDYWGQGTLVTVSS |  |  | 4 | 4
ABT2-108-533x/ABT1-122 hu IgG1/K wt (bispecific antibody, V domains shown) VH: EVQLLESGGGLVQPGGSLRLSCAASGFTFADEGMMWVRQAPGKGLEWVSRIGQDGKNTYYADSVKGRFTISRDNSKNTLYLQMNSLRAEDTAVYYCAKYTGRILGHHLFDYWGQGTLVTVSS VL: DIQMTQSPSSLSASVGDRVTITCRASQPIWTELNWYQQKPGKAPKLLIYGSSSLQSGVPRFSGSGSGTDFTLTISSLQPEDFATYYCQQFAYFPATFGQGTKVEIKR | 1000 |  |  | 
